# Results reported in article PMC11559061.
# T1: Fur (ferric uptake regulator) (Staphylococcus aureus) (UniProt A0A0H2XGT2)
# T1 sequence: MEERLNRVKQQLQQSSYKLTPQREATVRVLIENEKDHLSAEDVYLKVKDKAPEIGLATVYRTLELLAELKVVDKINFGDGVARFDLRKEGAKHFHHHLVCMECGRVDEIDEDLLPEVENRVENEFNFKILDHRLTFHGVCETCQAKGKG
# T2: purified S. aureus Fur (S. aureus) (UniProt P0A032)
# T2 sequence: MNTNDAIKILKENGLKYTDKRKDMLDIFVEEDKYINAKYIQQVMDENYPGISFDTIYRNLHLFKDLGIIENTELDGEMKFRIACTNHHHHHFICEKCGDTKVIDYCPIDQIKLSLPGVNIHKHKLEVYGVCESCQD
# B1: purified S. aureus Fpa (natural protein)
# chain: MAKQATMKNAALKQLTKDADEILHLIKVQLDNLTLPSCPLYEEVLDTQMFGLQKEVDFAVKLGLVDREDGKQIMLRLEKELSKLHEAFTLV
# Legend:
# [1] = target: T1, Fur (ferric uptake regulator) (Staphylococcus aureus); experiment: EMSA
# [2] = target: T2, purified S. aureus Fur (S. aureus)
Molecule,binding [1],"EMSA: association of Fur (40 µM) with isdC operator DNA, Fpa titrated in (0-40 µM by the legend, 0-80 µM by the methods), with 100 µM MnCl2 [2]"
"CTTTAGTAAAATCATAAATAATAATGATTATCATTGTCAATATTTATTTTATAATCAATTTATTATTGTTATACGAAAATAGATGTGCTAGTATAATTGATAACCATTATCAATTGCAATGGTTAATC (double strand) [isdC operator (two Fur boxes), 128 bp PCR product]",binds,
B1,,20 µM
